Measurements reported in patent US20230212587A1, “Mutant Hydroxyphenylpyruvate Dioxygenase Polypeptide, Encoding Gene Thereof and Use Therefor” (Beijing Dabeinong Biotechnology Co., Ltd., priority 2019, published 2023).

Test system: Arabidopsis thaliana T1 plants
Assay: Topramezone tolerance of transgenic Arabidopsis thaliana T1 plants (pesticide damage grade by bleached leaf area, score, resistance evaluation)
Assay type: in vivo
Details: for Classification and statistics of pesticide damage grade Grade 0 / Classification and statistics of pesticide damage grade Grade 1 / Classification and statistics of pesticide damage grade Grade 2 / Classification and statistics of pesticide damage grade Grade 3 / Scores / Resistance evaluation: HPPDs from different species, 7 DAT; for Classification and statistics of pesticide damage grade Grade 0 / Classification and statistics of pesticide damage grade Grade 1 / Classification and statistics of pesticide damage grade Grade 2 / Classification and statistics of pesticide damage grade Grade 3: number of plants (of 16) in this grade; for Scores / score: score for pesticide damage 0-100; for Grade 0 / Grade 1 / Grade 2 / Grade 3 / score / Resistance Grade: non-372 position mutants; for Grade 0 / Grade 1 / Grade 2 / Grade 3: number of plants (of 20) in this grade
Method in brief: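 Herbicide tolerance was judged per plant on a bleaching scale (grade 0 no bleaching to grade 3 fully bleached) 7 DAT. Topramezone doses were 0, 25, 50 and 100 g ai/ha on 18-day-old T1 and wild-type plants.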

| Molecule | Classification and statistics of pesticide damage grade Grade 0 (topramezone 25 g ai/ha (1x)) | Classification and statistics of pesticide damage grade Grade 1 (topramezone 25 g ai/ha (1x)) | Classification and statistics of pesticide damage grade Grade 2 (topramezone 25 g ai/ha (1x)) | Classification and statistics of pesticide damage grade Grade 3 (topramezone 25 g ai/ha (1x)) | Classification and statistics of pesticide damage grade Grade 0 (topramezone 100 g ai/ha (4x)) | Classification and statistics of pesticide damage grade Grade 1 (topramezone 100 g ai/ha (4x)) | Classification and statistics of pesticide damage grade Grade 2 (topramezone 100 g ai/ha (4x)) | Classification and statistics of pesticide damage grade Grade 3 (topramezone 100 g ai/ha (4x)) | Scores (topramezone 25 g ai/ha (1x)) | Scores (topramezone 100 g ai/ha (4x)) | Resistance evaluation (topramezone 25 g ai/ha (1x)) | Resistance evaluation (topramezone 100 g ai/ha (4x)) | other results |
| --- | --- | --- | --- | --- | --- | --- | --- | --- | --- | --- | --- | --- | --- |
| NtHPPDm-F372A-02: Nicotiana tabacum HPPD mutant F372A, SEQ ID NO: 114 (protein, NtHPPDm-F372A Amino Acid Sequence) MGKLETVTTTSAAAADDSSELTTNFKLVGFKNFIRTNPRSDFFSVKSFHHIEFWCGDATNTARRFSWSLGMPIAAKSDLSTGNSVHASYLLRPVSGSLQFLFTAPYSPSISTPSSAAIPSFSTSTHRSFTTTHGLGVRAVALEVENAYTAFSASVSRGAKPMFEPVTIDEQVAMAEVHLYGDVVLRFVSYLKDADNLVFLPGFEAMDETASYKELDYGIRRLDHAVGNVPELGPVVDYIKRFTGFHEFAEFTAEDVGTAESGLNSMVLANNDETVLLPLNEPVYGTKRKSQIQTYLEHNEGAGVQHLALVTEDIFKTLTEMRKRSGVGGFEFMPSPPPTYYKNLKNRAGDVLSDEQILACEELGILVDRDDQGTLLQIATKPVGDRPTIFIEIIQRIGCMLKDGKGQVYQKGGCGGFGKGNFSELFRSIEEYEKTLEAKQANQVAAA | 0 | 6 | 10 | 0 | 0 | 0 | 0 | 16 | 54 | 100 | poorly resistant (poorly resistant plants (scores 34-67)) | non-resistant (non-resistant plants (scores 68-100)) |  |
| StHPPD-02: native Solanum tuberosum HPPD, SEQ ID NO: 123 (protein, listed as Solanum tuberosum, StHPPD Amino Acid Sequence) MGKQAATATATATATADDQQLPADIEDKYKLVGFNNFVRTNPRSDLFNVKRFHHIEFWCGDATNTARRFSWGLGLPIAAKSDLSTGNSVHASYLLRSSSSQLQFLFTAPYSPAISTPSSSSIPTFSVSSHRSFTETHGLGVRAIALEVENSRLAFSTCVSHGAKPVSEPVILNDEVVISEVHLYGDVVLRFVSFLKDSNRFVFLPGFELVEGAQLDYGIRRLDHAVGNVPQLGPVVEYIKSFTGFHEFAEFTAEDVGTAESGLNSVVLANNDETVLFPLNEPVYGTKRKSQIQTYLEHNEGAGVQHLALVTEDIFRTLREMRKRSGIGGFEFMPSPPPTYYKNLKSRAGDILSDEQIKECEELGILVDRDDQGTLLQIFTKPVGDRPTIFLEIIQRIGCMLQNAEGELYQKGGCGGFGKGNFSELFKSIEEYEKTLEAKQNTQVAIA | 0 | 0 | 0 | 16 | 0 | 0 | 0 | 16 | 100 | 100 | non-resistant (non-resistant plants (scores 68-100)) | non-resistant (non-resistant plants (scores 68-100)) |  |
| StHPPDm-F372A-02: Solanum tuberosum HPPD mutant F372A, SEQ ID NO: 126 (protein, StHPPDm-F372A Amino Acid Sequence) MGKQAATATATATATADDQQLPADIEDKYKLVGFNNFVRTNPRSDLFNVKRFHHIEFWCGDATNTARRFSWGLGLPIAAKSDLSTGNSVHASYLLRSSSSQLQFLFTAPYSPAISTPSSSSIPTFSVSSHRSFTETHGLGVRAIALEVENSRLAFSTCVSHGAKPVSEPVILNDEVVISEVHLYGDVVLRFVSFLKDSNRFVFLPGFELVEGAQLDYGIRRLDHAVGNVPQLGPVVEYIKSFTGFHEFAEFTAEDVGTAESGLNSVVLANNDETVLFPLNEPVYGTKRKSQIQTYLEHNEGAGVQHLALVTEDIFRTLREMRKRSGIGGFEFMPSPPPTYYKNLKSRAGDILSDEQIKECEELGILVDRDDQGTLLQIATKPVGDRPTIFLEIIQRIGCMLQNAEGELYQKGGCGGFGKGNFSELFKSIEEYEKTLEAKQNTQVAIA | 4 | 12 | 0 | 0 | 0 | 1 | 4 | 11 | 25 | 88 | moderately resistant (moderately resistant plants (scores 16-33)) | non-resistant (non-resistant plants (scores 68-100)) |  |
| AsHPPDm-F415A: Avena sativa HPPD mutant F415A, SEQ ID NO: 424 (protein, AsHPPDm-F415A Amino Acid Sequence) MPPTPATATGAAAAAVTPEHAARSFPRVVRVNPRSDRFPVLSFHHVELWCADAASAAGRFSFALGAPLAARSDLSTGNSAHASLLLRSGALAFLFTAPYAPPPQEAATAAATASIPSFSADAARTFAAAHGLAVRSVGVRVADAAEAFRVSVAGGARPAFAPADLGHGFGLAEVELYGDVVLRFVSYPDETDLPFLPGFERVSSPGAVDYGLTRFDHVVGNVPEMAPVIDYMKGFLGFHEFAEFTAEDVGTTESGLNSVVLANNSEAVLLPLNEPVHGTKRRSQIQTYLEYHGGPGVQHIALASNDVLRTLREMRARTPMGGFEFMAPPQAKYYEGVRRIAGDVLSEEQIKECQELGVLVDRDDQGVLLQIFTKPVGDRPTFFLEMIQRIGCMEKDEVGQEYQKGGCGGFGKGNASELFKSIEDYEKSLEVKQSVVAQKS |  |  |  |  |  |  |  |  |  |  |  |  | tolerance to topramezone, in words (Arabidopsis thaliana T1 plants sprayed with topramezone): no significant difference; Grade 0 (topramezone 25 g ai/ha (1x)): 0; Grade 1 (topramezone 25 g ai/ha (1x)): 6; Grade 2 (topramezone 25 g ai/ha (1x)): 12; Grade 3 (topramezone 25 g ai/ha (1x)): 2; Grade 0 (topramezone 100 g ai/ha (4x)): 0; Grade 1 (topramezone 100 g ai/ha (4x)): 0; Grade 2 (topramezone 100 g ai/ha (4x)): 0; Grade 3 (topramezone 100 g ai/ha (4x)): 20; score (topramezone 25 g ai/ha (1x)): 60; score (topramezone 100 g ai/ha (4x)): 100; Resistance Grade (topramezone 25 g ai/ha (1x)): poorly resistant (poorly resistant plants (scores 34-67)); Resistance Grade (topramezone 100 g ai/ha (4x)): non-resistant (non-resistant plants (scores 68-100)) |
| CsHPPD-02: native Cucumis sativus HPPD, SEQ ID NO: 117 (protein, listed as Cucumis sativus, CsHPPD Amino Acid Sequence) MGKEADFPRAPSEATDGGATASQSEFELQGFDNFIRTNPKSDRFKVKRFHHIEFWCTDATNVARRFSWGLGMQIVAKSDLSTGNMTHASYLLRSGHLCFLFTAPYSPSIAAAQNLTPASTASIPSFDHSVCRSFSGTHGFGARAIALEVEDAEIAFRTSVAHGAKPSCPPIVLENRAVLSEVHLYGDVVLRYISYKNPVSGDNGENKPDEWFLPKFEAMEETASFPLDFGIRRLDHAVGNVPELGPAVSYLKGFTGFHEFAEFTAEDVGTSESGLNSMVLANNEEMVLLPINEPVFGTKRKSQIQTYLEHNEGAGVQHLALMSEDIFRTLREMRKRSSVGGFEFMPSPPPTYYKNLKSRAGDVLTDEQIKECEELGILVDKDDQGTLLQIFTKPVGDRPTIFIEIIQRLGCMMKDEEGKAFQKGGCGGFGKGNFSELFKSIEEYEKTLEAKRVSE | 0 | 0 | 0 | 16 | 0 | 0 | 0 | 16 | 100 | 100 | non-resistant (non-resistant plants (scores 68-100)) | non-resistant (non-resistant plants (scores 68-100)) |  |
| CsHPPDm-F372A-02: Cucumis sativus HPPD mutant F372A, SEQ ID NO: 120 (protein, CsHPPDm-F372A Amino Acid Sequence) MGKEADFPRAPSEATDGGATASQSEFELQGFDNFIRTNPKSDRFKVKRFHHIEFWCTDATNVARRFSWGLGMQIVAKSDLSTGNMTHASYLLRSGHLCFLFTAPYSPSIAAAQNLTPASTASIPSFDHSVCRSFSGTHGFGARAIALEVEDAEIAFRTSVAHGAKPSCPPIVLENRAVLSEVHLYGDVVLRYISYKNPVSGDNGENKPDEWFLPKFEAMEETASFPLDFGIRRLDHAVGNVPELGPAVSYLKGFTGFHEFAEFTAEDVGTSESGLNSMVLANNEEMVLLPINEPVFGTKRKSQIQTYLEHNEGAGVQHLALMSEDIFRTLREMRKRSSVGGFEFMPSPPPTYYKNLKSRAGDVLTDEQIKECEELGILVDKDDQGTLLQIATKPVGDRPTIFIEIIQRLGCMMKDEEGKAFQKGGCGGFGKGNFSELFKSIEEYEKTLEAKRVSE | 0 | 0 | 16 | 0 | 0 | 0 | 0 | 16 | 67 | 100 | poorly resistant (poorly resistant plants (scores 34-67)) | non-resistant (non-resistant plants (scores 68-100)) |  |
